Test system: target antigen-expressing cell line
Test: Jurkat NFAT-GFP assay, coculture with target cell lines expressing the respective target antigen (summary Table 10A)
Type: cell-based, human
Parameters: key: The signs +/−, +, 2+ etc. after the name of the cell lines indicate the relative degree of positivity on the Jurkat-NFAT-GFP assay as measured by the % GFP positive cells; +: relative degree of positivity on the Jurkat-NFAT-GFP assay as measured by the % GFP positive cells; 2+: relative degree of positivity on the Jurkat-NFAT-GFP assay as measured by the % GFP positive cells
Details: relative % GFP positive cells; for NFAT-GFP ASSAY Positive Cell lines: NALM6: SIR-expressing Jurkat-NFAT-GFP cells cocultured with NALM6; for NFAT-GFP ASSAY Positive Cell lines: RAJI: SIR-expressing Jurkat-NFAT-GFP cells cocultured with RAJI
Summary of the method: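 Read-out: % GFP+ cells by FACS. SIR-transduced, puromycin-selected Jurkat NFAT-GFP (IL-2 promoter reporter) cocultured ~4–18 h with target line, E:T ~1:2; parental cells as control; graded +/−, +, 2+ relative to parental.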

Molecule | NFAT-GFP ASSAY Positive Cell lines: NALM6 | NFAT-GFP ASSAY Positive Cell lines: RAJI | NFAT-GFP ASSAY Positive Cell lines: L363 (SIR-expressing Jurkat-NFAT-GFP cells cocultured with L363) | NFAT-GFP ASSAY Positive Cell lines: U266 (SIR-expressing Jurkat-NFAT-GFP cells cocultured with U266)
010417-C03 (protein) MALPVTALLLPLALLLHAARPLEGKPIPNPLLGLDSTGSGEDLKNVFPPEVAVFEPSKAEIAHTQKATLVCLATGFYPDHVELSWWVNGKEVHSGVCTDPQPLKEQPALNDSRYCLSSRLRVSATFWQNPRNHFRCQVQFYGLSENDEWTQDRAKPVTQIVSAEAWGRADCGITSASYHQGVLSATILYEILLGKATLYAVLVSALVLMAMVKRKDSRGRAKRSGSGATNFSLLKQAGDVEENPGPTSTMALPVTALLLPLALLLHAARPDEIVLTQSPATLSLSPGERATLSCSASSSVSYMHWYQQKPGQAPRLLIYDTSKLASGIPARFSGSGSGTDFTLTISSLEPEDVAVYYCFQGSVYPFTFGQGTKLEIKRGGGGSGGGGSGGGGSQVQLQESGPGLVKPSQTLSLTCTVSGGSISTSGMGVGWIRQHPGKGLEWIGHIWWDDDKRYNPALKSRVTISVDTSKNQFSLKLSSVTAADTAVYYCARMELWSYYFDYWGQGTLVTVSSTREAAAKDIQMTQSPSSLSASVGDRVTITCKASQDVGIAVAWYQQKPGKVPKLLIYWASTRHTGVPDRFSGSGSGTDFTLTISSLQPEDVATYYCQQYSSYPYTFGQGTKVEIKGGGGSGGGGSGGGGSEVQLVESGGGLVQPGGSLRLSCAASGFDFSRYWMSWVRQAPGKGLEWIGEINPDSSTINYAPSLKDKFIISRDNAKNSLYLQMNSLRAEDTAVYYCARPDGNYWYFDVWGQGTLVTVSSTREQKLISEEDGSGIQNPDPAVYQLRDSKSSDKSVCLFTDFDSQTNVSQSKDSDVYITDKCVLDMRSMDFKSNSAVAWSNKSDFACANAFNNSIIPEDTFFPSSDVPCDVKLVEKSFETDTNLNFQNLSVIGFRILLLKVAGFNLLMTLRLWSSRAKRSGSGVKQTLNFDLLKLAGDVESNPGPSRGHMTEYKPTVRLATRDDVPRAVRTLAAAFADYPATRHTVDPDRHIERVTELQELFLTRVGLDIGKVWVADDGAAVAVWTTPESVEAGAVFAEIGPRMAELSGSRLAAQQQMEGLLAPHRPKEPAWFLATVGVSPDHQGKGLGSAVVLPGVEAAERAGVPAFLETSAPRNLPFYERLGFTVTADVEVPEGPRTWCMTRKPGA | (+/−) | RAJI (+), NALM6 | – | –
010417-H05 (protein) MALPVTALLLPLALLLHAARPLEGKPIPNPLLGLDSTGSGEDLKNVFPPEVAVFEPSKAEIAHTQKATLVCLATGFYPDHVELSWWVNGKEVHSGVCTDPQPLKEQPALNDSRYCLSSRLRVSATFWQNPRNHFRCQVQFYGLSENDEWTQDRAKPVTQIVSAEAWGRADCGITSASYHQGVLSATILYEILLGKATLYAVLVSALVLMAMVKRKDSRGRAKRSGSGATNFSLLKQAGDVEENPGPTSMALPVTALLLPLALLLHAARPEIVLTQSPDFQSVTPKEKVTITCRASESVDTFGISFMNWFQQKPDQSPKLLIHAASNQGSGVPSRFSGSGSGTDFTLTINSLEAEDAATYYCQQSKEVPFTFGGGTKVEIKGGGGSGGGGSGGGGSEVQLVESGGGLVQPGGSLRLSCAASGFTFSSSWMNWVRQAPGKGLEWVGRIYPGDGDTNYNGKFKGRFTISRDDSKNSLYLQMNSLKTEDTAVYYCARSGFITTVLDFDYWGQGTLVTVSSTREQKLISEEDGSGIQNPDPAVYQLRDSKSSDKSVCLFTDFDSQTNVSQSKDSDVYITDKCVLDMRSMDFKSNSAVAWSNKSDFACANAFNNSIIPEDTFFPSSDVPCDVKLVEKSFETDTNLNFQNLSVIGFRILLLKVAGFNLLMTLRLWSSRAKRSGSGVKQTLNFDLLKLAGDVESNPGPSRGHMTEYKPTVRLATRDDVPRAVRTLAAAFADYPATRHTVDPDRHIERVTELQELFLTRVGLDIGKVWVADDGAAVAVWTTPESVEAGAVFAEIGPRMAELSGSRLAAQQQMEGLLAPHRPKEPAWFLATVGVSPDHQGKGLGSAVVLPGVEAAERAGVPAFLETSAPRNLPFYERLGFTVTADVEVPEGPRTWCMTRKPGA | (+) | RAJI (2+), NALM6 | – | –
030217-A05 (protein) MALPVTALLLPLALLLHAARPDEIVLTQSPATLSLSPGERATLSCSASSSVSYMHWYQQKPGQAPRLLIYDTSKLASGIPARFSGSGSGTDFTLTISSLEPEDVAVYYCFQGSVYPFTFGQGTKLEIKRGGGGSGGGGSGGGGSQVQLQESGPGLVKPSQTLSLTCTVSGGSISTSGMGVGWIRQHPGKGLEWIGHIWWDDDKRYNPALKSRVTISVDTSKNQFSLKLSSVTAADTAVYYCARMELWSYYFDYWGQGTLVTVSSLEGKPIPNPLLGLDSTGSGEDLKNVFPPEVAVFEPSKAEIAHTQKATLVCLATGFYPDHVELSWWVNGKEVHSGVCTDPQPLKEQPALNDSRYCLSSRLRVSATFWQNPRNHFRCQVQFYGLSENDEWTQDRAKPVTQIVSAEAWGRADCGITSASYHQGVLSATILYEILLGKATLYAVLVSALVLMAMVKRKDSRGRAKRSGSGATNFSLLKQAGDVEENPGPTSTMALPVTALLLPLALLLHAARPDIQMTQSPSSLSASVGDRVTITCKASQDVGIAVAWYQQKPGKVPKLLIYWASTRHTGVPDRFSGSGSGTDFTLTISSLQPEDVATYYCQQYSSYPYTFGQGTKVEIKGGGGSGGGGSGGGGSEVQLVESGGGLVQPGGSLRLSCAASGFDFSRYWMSWVRQAPGKGLEWIGEINPDSSTINYAPSLKDKFIISRDNAKNSLYLQMNSLRAEDTAVYYCARPDGNYWYFDVWGQGTLVTVSSTREQKLISEEDGSGIQNPDPAVYQLRDSKSSDKSVCLFTDFDSQTNVSQSKDSDVYITDKCVLDMRSMDFKSNSAVAWSNKSDFACANAFNNSIIPEDTFFPSSDVPCDVKLVEKSFETDTNLNFQNLSVIGFRILLLKVAGFNLLMTLRLWSSRAKRSGSGVKQTLNFDLLKLAGDVESNPGPSRGHMTEYKPTVRLATRDDVPRAVRTLAAAFADYPATRHTVDPDRHIERVTELQELFLTRVGLDIGKVWVADDGAAVAVWTTPESVEAGAVFAEIGPRMAELSGSRLAAQQQMEGLLAPHRPKEPAWFLATVGVSPDHQGKGLGSAVVLPGVEAAERAGVPAFLETSAPRNLPFYERLGFTVTADVEVPEGPRTWCMTRKPGA | (+/−), L363 (+/−), | RAJI (+), NALM6 | (+/−), L363 (+/−), | U266 (+/−)
010417-L03 (protein) MALPVTALLLPLALLLHAARPLEQKLISEEDLGSGDRPDPAVYQLRDSKSSDKSVCLFTDFDSQTNVSQSKDSDVYITDKCVLDMRSMDFKSNSAVAWSNKSDFACANAFNNSIIPEDTFFPSPESSCDVKLVEKSFETDTNLNFQNLSVIGFRILLLKVAGFNLLMTLRLWSSSSRAKRSGSGVKQTLNFDLLKLAGDVESNPGPTSMALPVTALLLPLALLLHAARPEIVLTQSPDFQSVTPKEKVTITCRASESVDTFGISFMNWFQQKPDQSPKLLIHAASNQGSGVPSRFSGSGSGTDFTLTINSLEAEDAATYYCQQSKEVPFTFGGGTKVEIKGGGGSGGGGSGGGGSEVQLVESGGGLVQPGGSLRLSCAASGFTFSSSWMNWVRQAPGKGLEWVGRIYPGDGDTNYNGKFKGRFTISRDDSKNSLYLQMNSLKTEDTAVYYCARSGFITTVLDFDYWGQGTLVTVSSTRGKPIPNPLLGLDSTGSGEDLKNVFPPEVAVFEPSEAEISHTQKATLVCLATGFYPDHVELSWWVNGKEVHSGVCTDPQPLKEQPALNDSRYCLSSRLRVSATFWQNPRNHFRCQVQFYGLSENDEWTQDRAKPVTQIVSAEAWGRADCGFTSESYQQGVLSATILYEILLGKATLYAVLVSALVLMAMVKRKDSRGRAKRSGSGATNFSLLKQAGDVEENPGPSRGHMTEYKPTVRLATRDDVPRAVRTLAAAFADYPATRHTVDPDRHIERVTELQELFLTRVGLDIGKVWVADDGAAVAVWTTPESVEAGAVFAEIGPRMAELSGSRLAAQQQMEGLLAPHRPKEPAWFLATVGVSPDHQGKGLGSAVVLPGVEAAERAGVPAFLETSAPRNLPFYERLGFTVTADVEVPEGPRTWCMTRKPGA | RAJI (+), NALM6 (+) | RAJI (+), NALM6 (+) | – | –
011317-A06 (protein) MALPVTALLLPLALLLHAARPLEQKLISEEDLGSGDRPDPAVYQLRDSKSSDKSVCLFTDFDSQTNVSQSKDSDVYITDKCVLDMRSMDFKSNSAVAWSNKSDFACANAFNNSIIPEDTFFPSPESSCDVKLVEKSFETDTNLNFQNLSVIGFRILLLKVAGFNLLMTLRLWSSSSRAKRSGSGVKQTLNFDLLKLAGDVESNPGPTSMALPVTALLLPLALLLHAARPEIVLTQSPDFQSVTPKEKVTITCRASESVDTFGISFMNWFQQKPDQSPKLLIHAASNQGSGVPSRFSGSGSGTDFTLTINSLEAEDAATYYCQQSKEVPFTFGGGTKVEIKGGGGSGGGGSGGGGSEVQLVESGGGLVQPGGSLRLSCAASGFTFSSSWMNWVRQAPGKGLEWVGRIYPGDGDTNYNGKFKGRFTISRDDSKNSLYLQMNSLKTEDTAVYYCARSGFITTVLDFDYWGQGTLVTVSSTRGKPIPNPLLGLDSTGSGEDLKNVFPPEVAVFEPSEAEISHTQKATLVCLATGFYPDHVELSWWVNGKEVHSGVCTDPQPLKEQPALNDSRYCLSSRLRVSATFWQNPRNHFRCQVQFYGLSENDEWTQDRAKPVTQIVSAEAWGRADCGFTSESYQQGVLSATILYEILLGKATLYAVLVSALVLMAMVKRKDSRGRAKRSGSGATNFSLLKQAGDVEENPGPSRGHMTEYKPTVRLATRDDVPRAVRTLAAAFADYPATRHTVDPDRHIERVTELQELFLTRVGLDIGKVWVADDGAAVAVWTTPESVEAGAVFAEIGPRMAELSGSRLAAQQQMEGLLAPHRPKEPAWFLATVGVSPDHQGKGLGSAVVLPGVEAAERAGVPAFLETSAPRNLPFYERLGFTVTADVEVPEGPRTWCMTRKPGA | (2+) | RAJI (2+), NALM6 | – | –

Reference: patent US12269859B2, “Synthetic immune receptors and methods of use thereof” (Angeles Therapeutics, Inc., priority 2016, dated 2025)
